Laboratory results from article PMC9984183 (Science Advances, 2023).

Biological target: human secretory pathway Ca2+/Mn2+ ATPase 1, isoform 1a (SPCA1a), PA-tagged (human, UniProt P98194)
Experiment: SEC

Sequence of human secretory pathway Ca2+/Mn2+ ATPase 1, isoform 1a (SPCA1a), PA-tagged (P98194 whole entry, canonical isoform): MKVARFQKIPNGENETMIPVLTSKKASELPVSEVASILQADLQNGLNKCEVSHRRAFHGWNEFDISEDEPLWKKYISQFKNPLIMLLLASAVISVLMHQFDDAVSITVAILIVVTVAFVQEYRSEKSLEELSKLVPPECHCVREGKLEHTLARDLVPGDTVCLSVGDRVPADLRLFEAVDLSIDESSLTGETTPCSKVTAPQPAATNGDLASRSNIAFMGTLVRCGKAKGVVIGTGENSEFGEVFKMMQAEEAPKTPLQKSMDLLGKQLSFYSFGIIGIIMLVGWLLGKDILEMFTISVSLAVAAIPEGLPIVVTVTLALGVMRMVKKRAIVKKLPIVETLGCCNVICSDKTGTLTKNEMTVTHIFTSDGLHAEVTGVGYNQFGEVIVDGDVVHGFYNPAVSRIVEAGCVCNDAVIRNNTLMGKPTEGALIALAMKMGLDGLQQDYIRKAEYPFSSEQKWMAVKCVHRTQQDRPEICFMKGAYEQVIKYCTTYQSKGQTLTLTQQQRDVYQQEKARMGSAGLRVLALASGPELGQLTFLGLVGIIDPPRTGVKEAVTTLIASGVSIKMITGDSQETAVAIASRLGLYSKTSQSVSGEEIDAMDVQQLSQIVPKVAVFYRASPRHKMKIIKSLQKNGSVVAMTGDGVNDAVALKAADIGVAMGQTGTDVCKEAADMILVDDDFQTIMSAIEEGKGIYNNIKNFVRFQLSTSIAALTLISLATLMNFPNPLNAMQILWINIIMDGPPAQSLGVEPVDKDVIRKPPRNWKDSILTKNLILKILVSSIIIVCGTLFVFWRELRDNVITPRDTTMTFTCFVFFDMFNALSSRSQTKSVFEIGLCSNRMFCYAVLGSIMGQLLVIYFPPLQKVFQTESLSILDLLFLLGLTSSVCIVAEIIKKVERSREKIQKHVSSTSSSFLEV

B1: nanobody 14 (Nb14), recombinant (VHH)
VHH: QVQLQESGGGLVQAGGSLRLSCAASGSIFGADWMGWYRQAPGKEREFVAGIGHGASTYYADSVKGRFTISRDNAKNTVYLQMNSLKPEDTAVYYCAVQYTQGWSGQYRSYDSLLYWGQGTQVTVSS
  binding result: binds
